Test results reported in patent US20130224224A1 (Boehringer Ingelheim, published 2013).
Numbering of substitutions follows the chain as printed. Like-named read-outs stand apart in the source and are kept apart here.

B1: CX3CR1BII016 (VHH)
chain: EVQLVESGGGSVQAGESLRLSCAASGSIFSSNAMAWYRQAPGKQRDLVAVINSVGITKYADSVKGRFTISGDNAKNTVYLQMNSLKPEDTAVYYCTSDARRGWDTRYWGQGTQVTVSSGGGGSGGGGSGGGGSGGGGSGGGGSGGGGSGGGGSEVQLVESGGGSVQAGESLRLSCAASGSIFSSNAMAWYRQAPGKQRDLVAVINSVGITKYADSVKGRFTISGDNAKNTVYLQMNSLKPEDTAVYYCTSDARRGWDTRYWGQGTQVTVSS
notes: expressed in E. coli as described for the monovalent VHHs
B2: CX3CR1BII018 (VHH)
chain: B1 chain with Q44R, V50A, I56V, G71R, A99P, Q197R, V203A, I209V, G224R, A252P
modifications: A647 label where used as labeled competitor (Example 14)
notes: expressed in E. coli as described for the monovalent VHHs; also called A647-018; A647 labeled CX3CR1BII018
B3: CX3CR1BII019 (VHH)
chain: B1 chain with V2M, V50L, G71R, A99G, V155M, V203L, G224R, A252G
notes: as for B1
B4: CX3CR1BII020 (VHH)
chain: B1 chain with V50G, G71R, V78A, A99P, Q113L, V203G, G224R, V231A, A252P, Q266L
notes: as for B1
B5: CX3CR1BII017 (VHH)
chain: EVQLVESGGGSVQAGESLRLSCAASGSIFSSNAMAWYRQAPPGKQRDLVALINSVGITKYADSVKGRFTISSDNAKNTVYLEMNSLKPEDTAVYYCTSDGRRGWDTRYWGQGTQVTVSSGGGGSGGGGSGGGGSGGGGSGGGGSGGGGSGGGGSEVQLVESGGGSVQAGESLRLSCAASGSIFSSNAMAWYRQAPPGKQRDLVALINSVGITKYADSVKGRFTISSDNAKNTVYLEMNSLKPEDTAVYYCTSDGRRGWDTRYWGQGTQVTVSS
notes: as for B1
B6: CX3CR1BIIPMP54D5 (VHH)
VHH: EVQLVESGGGSVQAGESLRLSCAASGSIFSSNAMAWYRQAPPGKQRDLVALINSVGITKYADSVKGRFTISSDNAKNTVYLEMNSLKPEDTAVYYCTSDGRRGWDTRYWGQGTQVTVSS
notes: also called 54D05; CX3CR1BII54D5; not shown: C-terminal c-myc and His6 tags

Legend:
human CX3CR1 [1] = molecular target: T1, human CX3CR1 (human, UniProt P49238 1-355); assay: A647-fractalkine competition FACS, HEK293T human CX3CR1
T1 construct: overexpressed on CHO, BA/F3 or HEK293T cells; also called huCX3CR1; hCX3CR1
T1 sequence: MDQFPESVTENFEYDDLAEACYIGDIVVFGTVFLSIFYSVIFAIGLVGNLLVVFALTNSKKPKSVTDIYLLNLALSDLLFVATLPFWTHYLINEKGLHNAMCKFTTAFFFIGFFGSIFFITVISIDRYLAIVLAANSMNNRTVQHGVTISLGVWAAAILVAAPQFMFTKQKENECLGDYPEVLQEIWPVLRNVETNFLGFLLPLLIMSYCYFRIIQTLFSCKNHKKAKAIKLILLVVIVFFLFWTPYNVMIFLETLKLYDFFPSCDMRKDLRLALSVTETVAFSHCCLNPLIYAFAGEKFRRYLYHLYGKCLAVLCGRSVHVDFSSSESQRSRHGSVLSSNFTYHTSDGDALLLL
Experimental: (§1) For later identified VHHs, a human Fractalkine competition FACS was set up using human or cynomolgus CX3CR1 expressed in HEK293T cells. Both the human and the cynomolgus receptor was transiently transfected in HEK293T cells and transfections were matched by the binding of the labeled ligand, human fractalkine. The competition was evaluated using the EC30 concentration of fractalkine and as such obtained IC50 values are a good estimate of the Ki value, a measure for affinity (Table 22). The experiment was performed as described in Example 4. The ratio of the IC50 values on cynomolgus monkey and human CX3CR1 was used to evaluate potential differences in affinity for CX3CR1 in both species.
(§2) Also for the bivalent constructs the cross reactivity towards cynomolgus CX3CR1 was evaluated and compared with the human reactivity. As described earlier, either a binding setup (Table 27) or a ligand competition setup (Table 28) were applied using transient transfected HEK293T cells. Batches of transient transfected cells were matched by their receptor expression level.

human CX3CR1 [2] = molecular target: T1, human CX3CR1; assay: A647-fractalkine competition FACS, HEK293-huCX3CR1
cynomolgus CX3CR1 [3] = molecular target: T2, cynomolgus CX3CR1 (cynomolgus, UniProt P49238 1-355 (human entry)); assay: A647-fractalkine competition FACS, HEK293T cynomolgus CX3CR1
T2 construct: transiently expressed on HEK293T cells; also called cyCX3CR1; cyno CX3CR1
T2 chain: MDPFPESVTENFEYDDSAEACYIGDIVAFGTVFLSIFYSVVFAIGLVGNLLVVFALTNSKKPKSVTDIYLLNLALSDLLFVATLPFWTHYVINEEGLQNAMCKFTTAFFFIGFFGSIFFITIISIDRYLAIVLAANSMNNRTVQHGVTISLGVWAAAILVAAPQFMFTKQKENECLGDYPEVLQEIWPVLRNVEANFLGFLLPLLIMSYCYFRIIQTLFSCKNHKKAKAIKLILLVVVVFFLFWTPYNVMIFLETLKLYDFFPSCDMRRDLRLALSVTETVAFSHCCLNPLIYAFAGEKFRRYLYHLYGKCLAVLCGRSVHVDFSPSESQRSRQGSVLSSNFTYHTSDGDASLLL
Experimental: as §1, §2

cynomolgus CX3CR1 [4] = molecular target: T2, cynomolgus CX3CR1; assay: A647-fractalkine competition FACS, cynomolgus against human CX3CR1
Experimental: as §1, §2

human CX3CR1 [5] = molecular target: T1, human CX3CR1; assay: cell-based or functional assay
human CX3CR1 [6] = molecular target: T1, human CX3CR1; assay: periplasmic extract, A647-fractalkine competition FACS, CHO-huCX3CR1
Procedure, shortened: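 Periplasmic VHH extracts competed with Alexa647-fractalkine (EC30, 1 nM; 3 nM initially) for binding to live or frozen CHO cells overexpressing human CX3CR1, 1 h at 4 C. FACS read on intact, PI-negative cells; percent block derived using no-VHH, irrelevant-VHH and excess cold fractalkine controls.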

cynomolgus CX3CR1 [7] = molecular target: T2, cynomolgus CX3CR1; assay: A647-fractalkine competition FACS, HEK293T cynomolgus CX3CR1
Text: (§3) Periplasmic extracts were screened in a human CX3CR1/human Fractalkine FACS competition assay to assess the blocking capacity of the expressed VHHs. Human CX3CR1 was presented on CHO cells overexpressing CX3CR1. Both a setup using cells harvested from an actively growing culture and a setup using frozen cells was used. As a detection reagent labeled fractalkine was used (R&D Systems, Minneapolis, Minn., USA) labeled with alexa647 (A647-Fractalkine) at a degree of labeling of 1. To setup the assay, first a titration series of the labeled fractalkine was performed on the CHO-huCX3CR1 cells in order to determine the EC50 value for binding. Initially screening was performed at a higher concentration of fractalkine (3 nM) to increase the assay robustness. To increase the sensitivity of the screening to a maximum, the EC30 concentration (1 nM) was chosen for subsequent screening. In brief 50 μl of periplasmic extract was added to 6 nM labeled fractalkine (50 μ;) and 200 000 CHO-huCX3CR1 cells. After one hour incubation at 4 C, cells were washed three times before read out was performed on a FACS Array (Becton Dickinson). First a gate was set on the intact cells as determined from the scatter profile. Next, dead cells were gated out by their fluorescence profile from the PI stain (Sigma, St Louis, US). The fluorescence profile from the alexa647 label was determined for each sample and used for calculation of blocking capacity. As controls, conditions were taken along where there was no VHH present in the peri extract or a known irrelevant VHH and samples were included where excess cold fractalkine was included. For each sample the percentage block was determined using the control samples to determine the assay window.
(§4) For later identified VHHs, a human Fractalkine competition FACS was set up using human or cynomolgus CX3CR1 expressed in HEK293T cells. Both the human and the cynomolgus receptor was transiently transfected in HEK293T cells and transfections were matched by the binding of the labeled ligand, human fractalkine. The competition was evaluated using the EC30 concentration of fractalkine and as such obtained IC50 values are a good estimate of the Ki value, a measure for affinity (Table 22). The experiment was performed as described in Example 4.

human CX3CR1 [8] = molecular target: T1, human CX3CR1; assay: A647-fractalkine competition FACS, BA/F3-huCX3CR1
Text: as §3
(§5) The blocking capacity towards the ligand fractalkine of the VHHs was evaluated in a human CX3CR1 competition FACS as outlined in Example 4. Either CHO-huCX3CR1 cells, BA/F3-huCX3CR1 cells or transiently transfected HEK293T cells were used. The amount of labeled ligand used in the different competition setups was also varied. The IC₅₀ values for VHHs blocking the interaction of human fractalkine to human CX3CR1 are depicted in Table 19.

human CX3CR1 [9] = molecular target: T1, human CX3CR1; assay: A647-fractalkine competition FACS, HEK293T human CX3CR1; remark: listed apart in the source
Text: as §3, §4

human CX3CR1 [10] = molecular target: T1, human CX3CR1; assay: A647-fractalkine competition FACS, HEK293-huCX3CR1; remark: listed apart in the source
Text: as §3, §5

cynomolgus CX3CR1 [11] = molecular target: T2, cynomolgus CX3CR1; assay: FACS binding, cynomolgus against human CX3CR1
Experimental: (§6) Initially, a FACS based binding setup was used to evaluate the cynomolgus cross reactivity. For this, the VHHs were incubated with the respective cells for 30 minutes at 4° C. followed by three wash steps and subsequently incubated with the detection reagents. As detection, a mouse anti-cmyc antibody (Serotec, MCA2200) followed by a goat anti-mouse antibody coupled to PE (Jackson 115-116-071) was used, each incubation for 30 minutes at 4° C., followed by three wash steps.

cynomolgus CX3CR1 [12] = molecular target: T2, cynomolgus CX3CR1; assay: A647-fractalkine competition FACS, cynomolgus against human CX3CR1
Text: as §3, §4

human CX3CR1 [13] = molecular target: T1, human CX3CR1; assay: cell-based or functional assay; remark: listed apart in the source
human CX3CR1 [14] = molecular target: T1, human CX3CR1; assay: A647-fractalkine competition FACS, CHO-huCX3CR1
Text: as §3, §5

cynomolgus CX3CR1 [15] = molecular target: T2, cynomolgus CX3CR1; assay: FACS binding on cynomolgus CX3CR1 cells, anti-c-myc detection
Experimental: as §6

human CX3CR1 [16] = molecular target: T1, human CX3CR1; assay: FACS binding on human CX3CR1 cells, anti-c-myc detection
Experimental: as §6

Binder | % block (human CX3CR1 [1]) [%] | IC50 (human CX3CR1 [1]) [nM] | % block (human CX3CR1 [2]) [%] | IC50 (human CX3CR1 [2]) [nM] | % block (cynomolgus CX3CR1 [3]) [%] | IC50 (cynomolgus CX3CR1 [3]) [nM] | ratio (cynomolgus/human IC50) (cynomolgus CX3CR1 [4]) | % block, fractalkine induced chemotaxis (human CX3CR1 [5]) [%] | IC50, fractalkine induced chemotaxis (human CX3CR1 [5]) [nM] | other results
B1 | 102 | 0.19 | 102 | 0.19 | 98 | 0.69 | 3.67 | 88 | 2 | –
B2 | 102 | 0.03 | 102 | 0.3 | 97 | 0.1 | 3.33 | 98 | 0.6 | –
B3 | 100 | 0.29 | 100 | 0.29 | 96 | 0.82 | 2.86 | 85 | 2 | –
B4 | 102 | 0.22 | 102 | 0.22 | 97 | 0.32 | 1.47 | 85 | 2 | –
B5 | 99 | 0.31 | 99 | 0.31 | 95 | 1.6 | 5.34 | 89 | 3 | –
B6 | – | – | – | – | – | – | – | – | – | % block (human CX3CR1 [6]): 87.8%; % block (cynomolgus CX3CR1 [7]): 91%; IC50 (cynomolgus CX3CR1 [7]): 64 nM; % block (human CX3CR1 [8]): 99%; IC50 (human CX3CR1 [8]): 5.5 nM; % block (human CX3CR1 [9]): 94%; IC50 (human CX3CR1 [9]): 5.3 nM; % block (human CX3CR1 [10]): 94%; IC50 (human CX3CR1 [10]): 5.3 nM; ratio (cynomolgus/human EC50) (cynomolgus CX3CR1 [11]): 59.6; ratio (cynomolgus/human IC50) (cynomolgus CX3CR1 [12]): 12.2; % block, fractalkine induced chemotaxis (human CX3CR1 [13]): 81%; IC50, fractalkine induced chemotaxis (human CX3CR1 [13]): 70 nM; % block (human CX3CR1 [14]): 102%; IC50 (human CX3CR1 [14]): 2.7 nM; EC50 (cynomolgus CX3CR1 [15]): 50 nM; EC50 (human CX3CR1 [16]): 0.84 nM
